Experimental data taken from article PMC6778148.

Molecular target: fluorescein-labelled divalent stargazin-derived peptide ligand
Assay: fluorescence polarisation; direct titration: 50 nM fluorescein-labelled stargazin ligand (divalent or monovalent) against increasing concentrations of PDZ domains; apparent KD

B1: SAP102 tandem PDZ domains 1 and 2 (SAP102-12), from pET-NO (domain or fragment)
chain: FKYEEIVLERGNSGLGFSIAGGIDNPHVPDDPGIFITKIIPGGAAAMDGRLGVNDCVLRVNEVDVSEVVHSRAVEALKEAGPVVRLVVRRRQPPPETIMEVNLLKGPKGLGFSIAGGIGNQHIPGDNSIYITKIIEGGAAQKDGRLQIGDRLLAVNNTNLQDVRHEEAVASLKNTSDMVYLKVAKPGSL
**Q.** How did the Kd turn out when B1 was run?
**A.** 175 nM
